Reference: US20250154240A1, “ANTI-HUMAN CXCL1 ANTIBODY” (CHIOME BIOSCIENCE INC., priority 2022, published 2025)

Key:
HuCXCL2 = molecular target: T1, HuCXCL2 (Homo sapiens, UniProt P19875); test: ELISA, inhibition of binding of HuCXCL2 to GAG (heparin, heparan sulfate); type: biochemical; details: antibody 0 to 10 μg/mL; biotin-labeled heparin or heparan sulfate 10 μg/mL
T1 construct: purchased PROTEINTECH
T1 sequence (P19875 35-107): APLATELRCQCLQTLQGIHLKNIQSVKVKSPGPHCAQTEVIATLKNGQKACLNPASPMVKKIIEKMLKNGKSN
Method: (§1) Thus, the effect of Hu5A-5E11 on the binding of CXCLs to GAG was evaluated by ELISA assay using plates on which the antigen (HuCXCL1 protein) used for immunization or HuCXCL2, 3 and 5 and MsCXCL1 and 2 proteins had been directly immobilized. CXCLs other than HuCXCL1 were purchased from PROTEINTECH and used. Biotin-labeled heparan sulfate and heparin were purchased from PG Research and used.
(§2) To 96-well plates, phosphate-buffered saline (PBS) containing 3 μg/mL of HuCXCL1, 2, 3 or 5 or MsCXCL1 or 10 μg/mL of MsCXCL2 was added in a volume of 50 μL per well, and the plates were allowed to stand overnight at 4° C. After removal of the antigen solutions, PBS containing 0.05% Tween-20 (hereinafter referred to as the blocking solution) was added to each well for blocking reaction, and the plates were allowed to stand at room temperature for 30 minutes. […] TMB (Dako) was added as a chromogenic substrate solution to cause color development, and 1 N sulfuric acid was added to stop the reaction, followed by measurement of absorbance at 450 nm. The binding rate of CXCLs to GAG was calculated as a ratio relative to the absorbance measured in the absence of the antibody, which was set to 100%.

HuCXCL5 = molecular target: T2, HuCXCL5 (Homo sapiens, UniProt P42830); test: ELISA, inhibition of binding of HuCXCL5 to GAG (heparin, heparan sulfate); type: biochemical; set-up: purchased PROTEINTECH; details: antibody 0 to 10 μg/mL; biotin-labeled heparin or heparan sulfate 10 μg/mL
T2 sequence (P42830 37-114): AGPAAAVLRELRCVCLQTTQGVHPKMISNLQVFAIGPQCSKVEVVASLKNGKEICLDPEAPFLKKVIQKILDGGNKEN
Method: as §1, §2

B1: Hu5A-5E11: humanized antibody VH1/VL1; VH SEQ ID NO: 76, VL SEQ ID NO: 78 (antibody, V domains shown)
VH: QVQLVQSGAEVKKPGSSVKVSCKASGYAFSDYWMNWVRQAPGQGLEWIGQIYPGSGDTNYNAKFKGKGTITADKSTSTAYMELSSLRSEDTAVYYCARERDYDVAMDYWGQGTTVTVSS
VL: DIQMTQSPSSLSASVGDRVTITCKASQDINKYIAWFQQKPGKAPKLVIHYTSILQPGVPSRFSGSGSGTDYTFTISSLQPEDIATYYCLQYDNLPWTFGGGTKVEIK
Inhibitory activity against the binding of HuCXCL2 to GAG (HuCXCL2): inhibit the binding of HuCXCL1, 2, 3 and 5 and MsCXCL1 to GAG in an antibody concentration-dependent manner
Inhibitory activity against the binding of HuCXCL5 to GAG (HuCXCL5): inhibit the binding of HuCXCL1, 2, 3 and 5 and MsCXCL1 to GAG in an antibody concentration-dependent manner
